Experimental data: patent publication EP0459978B1, “CLASS I MHC MODULATION OF SURFACE RECEPTOR ACTIVITY” (THE REGENTS OF THE UNIVERSITY OF CALIFORNIA, priority 1989, dated 1997)

Experiment: Peptide depletion (degradation or adsorption) during the experimental period, by HPLC and 125I-labeled peptide
Format: physicochemical
Conditions: HPLC and 125I-labeled peptide; concentrations above 0.1 )M

Substance: dynorphin A: control peptide purchased from Peninsula Laboratories
- depletion (degradation or adsorption) during the experimental period: No significant depletion
